Assay [1] deals with Recombinant human JAK2 immobilized on agarose beads (human), O60674. As to the kind of experiment: cell-based or functional assay.
Assay [2] has as its target T1, biotinylated phosphorylated JAK2 WT peptide (p-JAK2 WT) (human (the JAK2 WT sequence is the same for both mice and humans)).
T1 chain: LPQDKEYYKVKEP
As to the kind of experiment: solid phase binding assay, biotinylated peptide on immobilized Tkip (FIG. 4).

Sequence of Recombinant human JAK2 immobilized on agarose beads (human), O60674 (O60674 whole entry): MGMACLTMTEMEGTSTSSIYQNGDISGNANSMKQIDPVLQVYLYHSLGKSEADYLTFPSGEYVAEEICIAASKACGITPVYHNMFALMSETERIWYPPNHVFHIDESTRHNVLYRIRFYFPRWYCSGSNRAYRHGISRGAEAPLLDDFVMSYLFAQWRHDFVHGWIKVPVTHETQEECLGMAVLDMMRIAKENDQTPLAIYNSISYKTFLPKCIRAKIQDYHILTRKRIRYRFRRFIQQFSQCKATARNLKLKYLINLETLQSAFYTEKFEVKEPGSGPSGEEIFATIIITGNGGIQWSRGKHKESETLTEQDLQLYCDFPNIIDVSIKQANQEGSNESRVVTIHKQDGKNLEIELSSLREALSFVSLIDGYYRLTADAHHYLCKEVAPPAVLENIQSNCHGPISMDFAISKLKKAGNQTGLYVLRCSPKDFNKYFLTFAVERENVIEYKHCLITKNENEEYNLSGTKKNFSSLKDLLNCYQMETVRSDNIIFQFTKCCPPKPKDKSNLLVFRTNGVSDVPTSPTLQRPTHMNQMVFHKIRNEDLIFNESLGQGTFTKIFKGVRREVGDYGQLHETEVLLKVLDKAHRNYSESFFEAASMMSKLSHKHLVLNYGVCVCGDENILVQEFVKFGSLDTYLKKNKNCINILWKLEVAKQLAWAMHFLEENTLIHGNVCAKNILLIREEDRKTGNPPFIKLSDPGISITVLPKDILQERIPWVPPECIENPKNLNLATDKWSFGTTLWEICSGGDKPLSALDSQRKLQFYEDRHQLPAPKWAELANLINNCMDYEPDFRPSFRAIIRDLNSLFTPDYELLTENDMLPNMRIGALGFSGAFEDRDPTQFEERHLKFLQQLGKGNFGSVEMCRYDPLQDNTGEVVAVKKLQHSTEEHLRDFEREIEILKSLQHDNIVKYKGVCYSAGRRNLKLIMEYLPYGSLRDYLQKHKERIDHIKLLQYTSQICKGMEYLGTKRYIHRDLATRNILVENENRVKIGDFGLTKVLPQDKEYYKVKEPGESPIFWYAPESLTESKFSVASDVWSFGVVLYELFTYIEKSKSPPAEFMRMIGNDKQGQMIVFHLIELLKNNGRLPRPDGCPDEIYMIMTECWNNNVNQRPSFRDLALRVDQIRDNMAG

With WLVFFVIFYFFR (modifications not checked) [Tkip (tyrosine kinase inhibitor peptide), …], the inhibition of 32P incorporation into JAK2/IFNGR-1 (Tkip at 50 µM) in assay [1] is greater than 95%. The molecule also registered a fold lower fifty percent endpoint concentration against unphosphorylated JAK2 WT in assay [2] of 9 fold.

(Values after patent US20040265963A1.)
